# Patent US20240043504A1 (published 2024)
# B1: mAb11004 (antibody, V domains shown)
# VH: QVQLVESGGGVVQPGRSLRLSCVASGFTFSIYGMDWVRQAPGKGLEWVAVISYDGSNKYYADSVKGRFTISRDNSKNTLYLQMNSLRPEDTAVYYCAKDREAAADAFDIWGQGTMVTVSS
# VL: DIQMTQSPSSVSASVGDRVTITCRASQGISSWLAWYQQKPGKAPKLLIYAASSLHSGVPSRFSGSGSGTDFTLTISSLQPEDFATYYCQQANSFRLTFGGGTKVEIK
# B2: mAb11008 (antibody, V domains shown)
# VH: EVQLVESGGGLVQPGGSLRLSCAASGFTVSSNYMTWVRQAPGKGLEWVSVIYSGGSTFYADSVKGRFTISRHNSENTLYLQMNSLRAEDTAVYYCARDLAAAGTDYWGQGALVTVSS
# VL: DIQLTQSPSFLSASVGDRVTITCWASQGISSYLAWYQQKPGKAPKLLIYAASTLQSGVPSRFSGSGSGTEFTLTISSLQPDDFATYYCQHLNSYLYTFGQGTKLEIK
# What was measured:
# Test in all cases: Luminex bead binding, supernatant
# [1] = biological target: Human SARS Coronavirus Spike S1 Subunit Protein (His Tag) (Sino 40150-V08B1) (Human SARS Coronavirus, UniProt P59594 14-667)
# [2] = biological target: SARS-CoV-2 Spike Protein (RBD)(R319-F541).hFc (mAb10622-L1) (SARS-CoV-2)
# [3] = biological target: T1, MERS-CoV (NCoV/Novel coronavirus) Spike Protein fragment (RBD, aa 367-606, His Tag) (Sino 40071-V08B1) (MERS-CoV, UniProt K9N5Q8 367-606)
# T1 sequence: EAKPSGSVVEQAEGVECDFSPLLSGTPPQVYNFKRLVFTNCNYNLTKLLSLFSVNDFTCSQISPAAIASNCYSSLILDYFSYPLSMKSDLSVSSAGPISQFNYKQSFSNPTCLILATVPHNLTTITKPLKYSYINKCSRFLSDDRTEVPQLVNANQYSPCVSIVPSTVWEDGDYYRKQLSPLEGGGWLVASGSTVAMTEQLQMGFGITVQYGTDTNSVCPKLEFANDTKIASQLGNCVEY
# [4] = biological target: T2, MERS-CoV (NCoV/Novel coronavirus) Spike Protein (ECD, aa 1-1297, His Tag) (Sino 40069-[change]) (MERS-CoV, UniProt K9N5Q8 18-1297)
# T2 sequence: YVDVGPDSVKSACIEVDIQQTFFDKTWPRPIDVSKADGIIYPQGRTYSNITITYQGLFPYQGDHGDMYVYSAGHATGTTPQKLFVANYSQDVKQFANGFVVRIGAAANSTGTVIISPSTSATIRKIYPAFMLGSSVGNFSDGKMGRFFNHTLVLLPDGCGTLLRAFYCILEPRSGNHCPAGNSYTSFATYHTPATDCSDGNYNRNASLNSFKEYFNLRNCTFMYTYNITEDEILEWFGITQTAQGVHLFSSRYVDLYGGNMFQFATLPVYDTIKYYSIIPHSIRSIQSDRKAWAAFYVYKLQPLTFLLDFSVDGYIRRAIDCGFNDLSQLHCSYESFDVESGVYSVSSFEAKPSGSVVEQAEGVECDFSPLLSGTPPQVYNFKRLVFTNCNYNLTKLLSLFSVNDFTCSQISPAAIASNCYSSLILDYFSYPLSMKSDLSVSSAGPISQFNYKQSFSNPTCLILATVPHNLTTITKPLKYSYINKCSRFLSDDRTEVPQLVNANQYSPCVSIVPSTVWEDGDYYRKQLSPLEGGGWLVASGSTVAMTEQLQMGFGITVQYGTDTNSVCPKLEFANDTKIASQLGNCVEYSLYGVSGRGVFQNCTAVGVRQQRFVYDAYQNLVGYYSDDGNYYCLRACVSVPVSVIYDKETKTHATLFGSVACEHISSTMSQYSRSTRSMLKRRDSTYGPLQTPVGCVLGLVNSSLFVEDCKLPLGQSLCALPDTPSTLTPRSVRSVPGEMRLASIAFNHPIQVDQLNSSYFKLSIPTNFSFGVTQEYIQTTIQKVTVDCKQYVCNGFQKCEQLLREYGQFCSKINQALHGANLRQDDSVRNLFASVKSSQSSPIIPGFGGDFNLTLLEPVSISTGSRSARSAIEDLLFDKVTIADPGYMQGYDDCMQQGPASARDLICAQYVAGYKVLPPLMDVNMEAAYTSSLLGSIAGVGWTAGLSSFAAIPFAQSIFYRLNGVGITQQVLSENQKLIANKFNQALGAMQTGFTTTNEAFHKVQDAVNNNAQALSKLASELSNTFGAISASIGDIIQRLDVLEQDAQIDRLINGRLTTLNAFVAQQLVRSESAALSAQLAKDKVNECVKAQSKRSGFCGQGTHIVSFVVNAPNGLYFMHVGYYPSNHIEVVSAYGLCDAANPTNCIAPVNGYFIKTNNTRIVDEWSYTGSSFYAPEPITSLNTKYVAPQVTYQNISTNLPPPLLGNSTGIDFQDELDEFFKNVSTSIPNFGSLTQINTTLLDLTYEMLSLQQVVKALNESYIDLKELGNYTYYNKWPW
# [5] = biological target: SARS-CoV-2 Spike Protein (RBD)(R319-F541).mFc (mAb10621-L1) (SARS-CoV-2)
# [6] = biological target: T3, MERS-CoV (NCoV/Novel coronavirus) Spike Protein S2 (aa 726-1296, His Tag) (Sino 40070-[change]) (MERS-CoV, UniProt K9N5Q8 726-1296)
# T3 sequence: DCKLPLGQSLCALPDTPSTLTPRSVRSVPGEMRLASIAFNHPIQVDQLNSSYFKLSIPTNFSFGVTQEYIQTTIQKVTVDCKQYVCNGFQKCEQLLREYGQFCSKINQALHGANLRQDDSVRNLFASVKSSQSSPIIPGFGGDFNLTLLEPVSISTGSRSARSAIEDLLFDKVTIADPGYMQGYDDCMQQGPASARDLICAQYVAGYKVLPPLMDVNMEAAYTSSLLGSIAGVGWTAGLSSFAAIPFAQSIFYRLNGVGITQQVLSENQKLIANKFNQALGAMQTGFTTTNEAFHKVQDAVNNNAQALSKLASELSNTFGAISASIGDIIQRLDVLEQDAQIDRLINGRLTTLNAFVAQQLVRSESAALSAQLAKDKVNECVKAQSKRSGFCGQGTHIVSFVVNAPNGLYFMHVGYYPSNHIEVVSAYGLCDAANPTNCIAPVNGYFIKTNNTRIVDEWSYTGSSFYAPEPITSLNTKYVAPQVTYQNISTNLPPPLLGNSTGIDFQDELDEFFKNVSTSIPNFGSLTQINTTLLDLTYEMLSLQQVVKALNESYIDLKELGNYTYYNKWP
# [7] = biological target: Bt-SARS-CoV-2 Spike Protein (RBD)(R319-F541).mFc (mAb10621-L2) (SARS-CoV-2)
binder,measurement,setting,value
B1,Binding signal (MFI),[1],33 MFI
same,Binding signal (MFI),[2],4880 MFI
same,Binding signal (MFI),[3],26 MFI
same,Binding signal (MFI),[4],15 MFI
same,Binding signal (MFI),[5],4580 MFI
same,Binding signal (MFI),[6],20 MFI
same,Binding signal (MFI),[7],4300 MFI
B2,Binding signal (MFI),[1],31 MFI
same,Binding signal (MFI),[2],2570 MFI
same,Binding signal (MFI),[3],20 MFI
same,Binding signal (MFI),[4],18 MFI
same,Binding signal (MFI),[5],4260 MFI
same,Binding signal (MFI),[6],16 MFI
same,Binding signal (MFI),[7],3050 MFI
